The results in this text go back to paper PMC11919686, “Structural basis for Vipp1 membrane binding: from loose coats and carpets to ring and rod assemblies” (Nature Structural & Molecular Biology, 2024).

Numbering of substitutions follows the chain as printed.

Data set [1] deals with the molecule itself. Description: cryo-EM structure; urea-unfolded protein added to an EPL lipid film and refolded by dialysis against 10 mM Tris-HCl pH 8.0; single-particle helical reconstruction or rotational symmetry (tubes, stacked rings, rings).
Data set [2] deals with the molecule itself. Description: negative-staining EM; protein refolded in the absence of membranes; 2% uranyl acetate.
Data set [3] concerns the molecule itself. In words: cryo-EM structure; Vipp1 (α1–α6) with and without EPL membrane reconstitution; single-particle helical reconstruction of rods.

B1: Vesicle-inducing protein in plastids 1 (Vipp1), full length, Synechocystis sp. PCC 6803 (natural protein, UniProt Q55707 1-267, looked up)
chain: MGLFDRLGRVVRANLNDLVSKAEDPEKVLEQAVIDMQEDLVQLRQAVARTIAEEKRTEQRLNQDTQEAKKWEDRAKLALTNGEENLAREALARKKSLTDTAAAYQTQLAQQRTMSENLRRNLAALEAKISEAKTKKNMLQARAKAAKANAELQQTLGGLGTSSATSAFERMENKVLDMEATSQAAGELAGFGIENQFAQLEASSGVEDELAALKASMAGGALPGTSAATPQLEAAPVDSSVPANNASQDDAVIDQELDDLRRRLNNL
notes: Vipp1 (sll0617) of Synechocystis sp; PCC 6803, full length; The C-terminal His-tag was cut off with 3C protease; residues of the 3C site may remain at the C-terminus; The deposited models hold 215 residues only; also called IM30; WT; not shown: His-tag, C-terminal, cleaved
As for B1, the binding result in data set [1] is recorded as “binds”.

B2: Vipp1 dL10Ala (substitution of aa 157–166 to alanine) (natural protein, Synechocystis sp. PCC 6803, UniProt Q55707 1-267, looked up)
chain: B1 chain with G157A, G158A, L159A, G160A, T161A, S162A, S163A, T165A, S166A
notes: Vipp1 (sll0617) of Synechocystis sp; PCC 6803 with the hinge 2 region (aa 157–166) replaced by ten alanines; The methods describe the denaturing purification and tag cleavage only for Vipp1 and Vipp1 (α1–α6); this mutant was probably handled in the same way; also called Vipp1dlA10; plasticity-restrained Vipp1 mutant; source: E. coli C41; reconstituted with EPL lipids or without membranes
Turning to B2, in data set [1], the binding result is “binds”.

B3: Vipp1 dL10 (truncation of aa 157–166) (natural protein, Synechocystis sp. PCC 6803, UniProt Q55707 1-267, looked up)
chain: MGLFDRLGRVVRANLNDLVSKAEDPEKVLEQAVIDMQEDLVQLRQAVARTIAEEKRTEQRLNQDTQEAKKWEDRAKLALTNGEENLAREALARKKSLTDTAAAYQTQLAQQRTMSENLRRNLAALEAKISEAKTKKNMLQARAKAAKANAELQQTLAFERMENKVLDMEATSQAAGELAGFGIENQFAQLEASSGVEDELAALKASMAGGALPGTSAATPQLEAAPVDSSVPANNASQDDAVIDQELDDLRRRLNNL
notes: Vipp1 (sll0617) of Synechocystis sp; PCC 6803 with aa 157–166 (hinge 2) deleted; The methods describe the purification and tag cleavage only for Vipp1 and Vipp1 (α1–α6); source: E. coli C41
Take B3: the binding result in data set [2] is reported as “binds”.

B4: Vipp1 (α1–α6), truncation of helix α0 (aa 1–23) (domain or fragment, Synechocystis sp. PCC 6803, UniProt Q55707 24-267, looked up)
chain: DPEKVLEQAVIDMQEDLVQLRQAVARTIAEEKRTEQRLNQDTQEAKKWEDRAKLALTNGEENLAREALARKKSLTDTAAAYQTQLAQQRTMSENLRRNLAALEAKISEAKTKKNMLQARAKAAKANAELQQTLGGLGTSSATSAFERMENKVLDMEATSQAAGELAGFGIENQFAQLEASSGVEDELAALKASMAGGALPGTSAATPQLEAAPVDSSVPANNASQDDAVIDQELDDLRRRLNNL
notes: Vipp1 (sll0617) of Synechocystis sp; PCC 6803 without helix α0 (aa 1–23 truncated); The models were built from PDB 7O3W with aa 1–22 removed, whereas the construct lacks aa 1–23; Residues of the 3C site may remain at the C-terminus; also called Vipp1(α1-6); truncated Vipp1 lacking α0; not shown: His-tag, C-terminal, cleaved
With B4, the binding result in data set [3] is “binds”.
